Results on 5 molecules are retold here after patent publication US20220298218A1 (ANTAG THERAPEUTICS, published 2022).

Assay [1] has as its target T1, human GIP receptor (human, UniProt P48546 22-466).
T1 sequence (looked up): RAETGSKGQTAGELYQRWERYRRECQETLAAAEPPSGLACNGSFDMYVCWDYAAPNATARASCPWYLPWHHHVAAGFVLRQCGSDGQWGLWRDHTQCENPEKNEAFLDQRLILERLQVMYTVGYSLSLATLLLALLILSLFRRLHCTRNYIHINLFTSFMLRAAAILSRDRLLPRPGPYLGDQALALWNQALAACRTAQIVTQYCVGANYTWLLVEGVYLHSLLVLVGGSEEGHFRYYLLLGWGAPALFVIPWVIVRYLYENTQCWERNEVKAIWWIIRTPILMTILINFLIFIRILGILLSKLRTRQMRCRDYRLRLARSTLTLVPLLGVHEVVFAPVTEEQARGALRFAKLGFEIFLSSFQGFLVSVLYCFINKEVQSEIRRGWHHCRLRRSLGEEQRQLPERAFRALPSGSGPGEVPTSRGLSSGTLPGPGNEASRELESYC
The assay is described as follows: cell-based or functional assay.

Assay [2] addresses T1, human GIP receptor. The assay is described as follows: cell-based or functional assay. This is another data set of the same source.

Like-named read-outs stand apart in the source and are kept apart here. *1 amine or outer side, *2 acyl side, *3 side chain or, on linkers, in order; H or OH if unused. Where no end group is shown, it is not given here. Side-chain parts run from the residue outwards. The star is where a group is joined. C18 diacid = O=C(O)CCCCCCCCCCCCCCCCC(=O)*; C16 diacid = O=C(O)CCCCCCCCCCCCCCC(=O)*; γGlu = O=C(O)[C@H](CCC(=O)[*:2])N[*:1]; AEEA = NCCOCCOCC(=O)O

B1: AT467 (peptide)
peptide: EGTFISDYSIAMDKIK(C16 diacid)QQDFVNWLLAQKGPSSGAPPP-OH
modifications: N-terminus assumed
SMILES: CC[C@H](C)[C@H](NC(=O)[C@H](CO)NC(=O)[C@H](Cc1ccc(O)cc1)NC(=O)[C@H](CC(=O)O)NC(=O)[C@H](CO)NC(=O)[C@@H](NC(=O)[C@H](Cc1ccccc1)NC(=O)[C@@H](NC(=O)CNC(=O)[C@@H](N)CCC(=O)O)[C@@H](C)O)[C@@H](C)CC)C(=O)N[C@@H](C)C(=O)N[C@@H](CCSC)C(=O)N[C@@H](CC(=O)O)C(=O)N[C@@H](CCCCN)C(=O)N[C@H](C(=O)N[C@@H](CCCCNC(=O)CCCCCCCCCCCCCCC(=O)O)C(=O)N[C@@H](CCC(N)=O)C(=O)N[C@@H](CCC(N)=O)C(=O)N[C@@H](CC(=O)O)C(=O)N[C@@H](Cc1ccccc1)C(=O)N[C@H](C(=O)N[C@@H](CC(N)=O)C(=O)N[C@@H](Cc1c[nH]c2ccccc12)C(=O)N[C@@H](CC(C)C)C(=O)N[C@@H](CC(C)C)C(=O)N[C@@H](C)C(=O)N[C@@H](CCC(N)=O)C(=O)N[C@@H](CCCCN)C(=O)NCC(=O)N1CCC[C@H]1C(=O)N[C@@H](CO)C(=O)N[C@@H](CO)C(=O)NCC(=O)N[C@@H](C)C(=O)N1CCC[C@H]1C(=O)N1CCC[C@H]1C(=O)N1CCC[C@H]1C(=O)O)C(C)C)[C@@H](C)CC
For the molecule B1, in the assay with human GIP receptor [1], the “cAMP agonism % Emax” value is 0%, the “cAMP antagonism” value came out at 14.7 nM, the “cAMP antagonism % inhib” value came out at 86% and the “cAMP antagonism pIC50” value turned out to be 7.8. Further, in the assay with human GIP receptor [2], the “cAMP antagonism” value came to 6 nM, the “cAMP antagonism % inhib” value was 100% and the cAMP antagonism log was -8.2 log M.

B2: AT439 (peptide)
peptide: SGTFISDYSIAMDRIK([AEEA-AEEA-γGlu-C16 diacid])QQDFVNWLLAQRGPSSGAPPPS-OH
modifications: N-terminus assumed
SMILES: CC[C@H](C)[C@H](NC(=O)[C@H](CO)NC(=O)[C@H](Cc1ccc(O)cc1)NC(=O)[C@H](CC(=O)O)NC(=O)[C@H](CO)NC(=O)[C@@H](NC(=O)[C@H](Cc1ccccc1)NC(=O)[C@@H](NC(=O)CNC(=O)[C@@H](N)CO)[C@@H](C)O)[C@@H](C)CC)C(=O)N[C@@H](C)C(=O)N[C@@H](CCSC)C(=O)N[C@@H](CC(=O)O)C(=O)N[C@@H](CCCNC(=N)N)C(=O)N[C@H](C(=O)N[C@@H](CCCCNC(=O)COCCOCCNC(=O)COCCOCCNC(=O)CC[C@H](NC(=O)CCCCCCCCCCCCCCC(=O)O)C(=O)O)C(=O)N[C@@H](CCC(N)=O)C(=O)N[C@@H](CCC(N)=O)C(=O)N[C@@H](CC(=O)O)C(=O)N[C@@H](Cc1ccccc1)C(=O)N[C@H](C(=O)N[C@@H](CC(N)=O)C(=O)N[C@@H](Cc1c[nH]c2ccccc12)C(=O)N[C@@H](CC(C)C)C(=O)N[C@@H](CC(C)C)C(=O)N[C@@H](C)C(=O)N[C@@H](CCC(N)=O)C(=O)N[C@@H](CCCNC(=N)N)C(=O)NCC(=O)N1CCC[C@H]1C(=O)N[C@@H](CO)C(=O)N[C@@H](CO)C(=O)NCC(=O)N[C@@H](C)C(=O)N1CCC[C@H]1C(=O)N1CCC[C@H]1C(=O)N1CCC[C@H]1C(=O)N[C@@H](CO)C(=O)O)C(C)C)[C@@H](C)CC
Turning to B2, in the assay with human GIP receptor [1], the “cAMP agonism % Emax” value turned out to be 0%, the “cAMP antagonism” value was found to be 14.7 nM, the “cAMP antagonism % inhib” value stood at 93% and the “cAMP antagonism pIC50” value stood at 7.8. For the same molecule, in the assay with human GIP receptor [2], the “cAMP antagonism” value was 9 nM, the “cAMP antagonism % inhib” value amounted to 100% and the cAMP antagonism log was -8 log M.

B3: AT441 (peptide)
peptide: SGTFISDYSIAMDRIK([AEEA-AEEA-γGlu-C18 diacid])QQDFVNWLLAQRGPSSGAPPPS-OH
modifications: N-terminus assumed
SMILES: CC[C@H](C)[C@H](NC(=O)[C@H](CO)NC(=O)[C@H](Cc1ccc(O)cc1)NC(=O)[C@H](CC(=O)O)NC(=O)[C@H](CO)NC(=O)[C@@H](NC(=O)[C@H](Cc1ccccc1)NC(=O)[C@@H](NC(=O)CNC(=O)[C@@H](N)CO)[C@@H](C)O)[C@@H](C)CC)C(=O)N[C@@H](C)C(=O)N[C@@H](CCSC)C(=O)N[C@@H](CC(=O)O)C(=O)N[C@@H](CCCNC(=N)N)C(=O)N[C@H](C(=O)N[C@@H](CCCCNC(=O)COCCOCCNC(=O)COCCOCCNC(=O)CC[C@H](NC(=O)CCCCCCCCCCCCCCCCC(=O)O)C(=O)O)C(=O)N[C@@H](CCC(N)=O)C(=O)N[C@@H](CCC(N)=O)C(=O)N[C@@H](CC(=O)O)C(=O)N[C@@H](Cc1ccccc1)C(=O)N[C@H](C(=O)N[C@@H](CC(N)=O)C(=O)N[C@@H](Cc1c[nH]c2ccccc12)C(=O)N[C@@H](CC(C)C)C(=O)N[C@@H](CC(C)C)C(=O)N[C@@H](C)C(=O)N[C@@H](CCC(N)=O)C(=O)N[C@@H](CCCNC(=N)N)C(=O)NCC(=O)N1CCC[C@H]1C(=O)N[C@@H](CO)C(=O)N[C@@H](CO)C(=O)NCC(=O)N[C@@H](C)C(=O)N1CCC[C@H]1C(=O)N1CCC[C@H]1C(=O)N1CCC[C@H]1C(=O)N[C@@H](CO)C(=O)O)C(C)C)[C@@H](C)CC
Consider B3, for which, in the assay with human GIP receptor [1], the “cAMP agonism % Emax” value was found to be 0%, the “cAMP antagonism” value turned out to be 21.5 nM, the “cAMP antagonism % inhib” value was 89% and the “cAMP antagonism pIC50” value worked out at 7.7. Also, in the assay with human GIP receptor [2], the “cAMP antagonism” value is 25 nM, the “cAMP antagonism % inhib” value is 55% and the cAMP antagonism log is -7.6 log M.

B4: AT437 (peptide)
peptide: SGTFISDYSIAMDKIK([AEEA-AEEA-γGlu-C18 diacid])QQDFVNWLLAQKGPSSGAPPPS-OH
modifications: N-terminus assumed
SMILES: CC[C@H](C)[C@H](NC(=O)[C@H](CO)NC(=O)[C@H](Cc1ccc(O)cc1)NC(=O)[C@H](CC(=O)O)NC(=O)[C@H](CO)NC(=O)[C@@H](NC(=O)[C@H](Cc1ccccc1)NC(=O)[C@@H](NC(=O)CNC(=O)[C@@H](N)CO)[C@@H](C)O)[C@@H](C)CC)C(=O)N[C@@H](C)C(=O)N[C@@H](CCSC)C(=O)N[C@@H](CC(=O)O)C(=O)N[C@@H](CCCCN)C(=O)N[C@H](C(=O)N[C@@H](CCCCNC(=O)COCCOCCNC(=O)COCCOCCNC(=O)CC[C@H](NC(=O)CCCCCCCCCCCCCCCCC(=O)O)C(=O)O)C(=O)N[C@@H](CCC(N)=O)C(=O)N[C@@H](CCC(N)=O)C(=O)N[C@@H](CC(=O)O)C(=O)N[C@@H](Cc1ccccc1)C(=O)N[C@H](C(=O)N[C@@H](CC(N)=O)C(=O)N[C@@H](Cc1c[nH]c2ccccc12)C(=O)N[C@@H](CC(C)C)C(=O)N[C@@H](CC(C)C)C(=O)N[C@@H](C)C(=O)N[C@@H](CCC(N)=O)C(=O)N[C@@H](CCCCN)C(=O)NCC(=O)N1CCC[C@H]1C(=O)N[C@@H](CO)C(=O)N[C@@H](CO)C(=O)NCC(=O)N[C@@H](C)C(=O)N1CCC[C@H]1C(=O)N1CCC[C@H]1C(=O)N1CCC[C@H]1C(=O)N[C@@H](CO)C(=O)O)C(C)C)[C@@H](C)CC
B4: in the assay with human GIP receptor [1], the “cAMP agonism % Emax” value was 0%, the “cAMP antagonism” value turned out to be 35.5 nM, the “cAMP antagonism % inhib” value worked out at 83% and the “cAMP antagonism pIC50” value was 7.5. For the same molecule, in the assay with human GIP receptor [2], the “cAMP antagonism” value worked out at 8 nM, the “cAMP antagonism % inhib” value was 100% and the cAMP antagonism log was -8.1 log M.

B5: AT468 (peptide)
peptide: EGTFISDYSIAMDKIK(C16 diacid)QQDFVNWLLAQKGPSSGAPP-OH
modifications: N-terminus assumed
SMILES: CC[C@H](C)[C@H](NC(=O)[C@H](CO)NC(=O)[C@H](Cc1ccc(O)cc1)NC(=O)[C@H](CC(=O)O)NC(=O)[C@H](CO)NC(=O)[C@@H](NC(=O)[C@H](Cc1ccccc1)NC(=O)[C@@H](NC(=O)CNC(=O)[C@@H](N)CCC(=O)O)[C@@H](C)O)[C@@H](C)CC)C(=O)N[C@@H](C)C(=O)N[C@@H](CCSC)C(=O)N[C@@H](CC(=O)O)C(=O)N[C@@H](CCCCN)C(=O)N[C@H](C(=O)N[C@@H](CCCCNC(=O)CCCCCCCCCCCCCCC(=O)O)C(=O)N[C@@H](CCC(N)=O)C(=O)N[C@@H](CCC(N)=O)C(=O)N[C@@H](CC(=O)O)C(=O)N[C@@H](Cc1ccccc1)C(=O)N[C@H](C(=O)N[C@@H](CC(N)=O)C(=O)N[C@@H](Cc1c[nH]c2ccccc12)C(=O)N[C@@H](CC(C)C)C(=O)N[C@@H](CC(C)C)C(=O)N[C@@H](C)C(=O)N[C@@H](CCC(N)=O)C(=O)N[C@@H](CCCCN)C(=O)NCC(=O)N1CCC[C@H]1C(=O)N[C@@H](CO)C(=O)N[C@@H](CO)C(=O)NCC(=O)N[C@@H](C)C(=O)N1CCC[C@H]1C(=O)N1CCC[C@H]1C(=O)O)C(C)C)[C@@H](C)CC
Regarding B5, in the assay with human GIP receptor [1], the “cAMP agonism % Emax” value came to 0%, the “cAMP antagonism” value is 12.6 nM, the “cAMP antagonism % inhib” value is 92% and the “cAMP antagonism pIC50” value came out at 7.9. Moreover, in the assay with human GIP receptor [2], the “cAMP agonism Emax” value worked out at 4.6, the “cAMP antagonism” value came out at 13 nM, the “cAMP antagonism % inhib” value is 95% and the cAMP antagonism log is -7.9 log M.
